The series in a line: soluble on expression in E. coli; label from the status in PepcDB or PDB records.
For the sequence “MSHSEAGQAASVRRVLAVIPARGGSKGVPAKNLLPVGGVPLVARAVRECRATRLVTDVVVSTDDHAIAAAAREAGAEVVLRPAAIAGDTATSEAAVLHAMDTHEALHGAAVDVVLLVQCTSPFIVREDVDGVVHAIVGKGADTALTVAPFHGFVWRDADDAPGALGAERAAVEGGTDTLVTGTATSGGYGINHDKSFRPRRQDRPQDLLETGAVYGMDATGFREARHRFFGRTELVRTDPARVLEIDDPHDLARARALAPLFDANRPGALPTAEDIDAVVLDFDGTQTDDRVLIDSDGREFVSVHRGDGLGIAALRKSGLTMLILSTEQNPVVAARARKLKIPVLHGIDRKDLALKQWCEEQGIAPERVLYVGNDVNDLPCFALVGWPVAVASAHDVVRGAARAVTTVPGGDGAIREIASWILGPSLDSLDKLEHHHHHH”, the “soluble on expression in E. coli” value is recorded as “not soluble”.
With “MGSDKIHHHHHHMNTKNYFIIGGTGGIGKAMVEQLLQTATNEHASTGMNNDTGIRVFATYHKSIPDFEADNLYWIAMDICDEQSIKHAVDTIKQQTTHIDWVINCAGLLHTKAQQPEKALQQLESEFFLQNMQVNALASLLIAKHIKPLLAKAERSADKPAIFATISARVGSISDNQLGGWYSYRMSKAALNMGMKNLSIEWSRSLKDVCVVVMQPGTVNTQLSAPFQGNVADGQLFSPTYSAECLLEVLSKMSAAQSGSFVDWAGESIPW” the entry was “not soluble”; with “MSLGRMFGTDGVRGIANKELTAELAYRLGRAGAYVLTNETHKPKILVGMDTRISGDMLEAALVSGILSVGAEAVCVGIVPTPAVAYLTRKYKADAGVVISASHNPVEYNGIKFFDAKGYKLSDNLEDEIQKIIESDFEGVPLPTGESVGRKVVEESAEEDYIKFAKSTIGTDLKGMKIALDCANGAAYKTAVKTFRELGAQVTVINNDPDGININCNCGSTHPEELMDYVVKKNCDLGLAFDGDADRCLAVDEKGNLIDGDFIMAICGKYLKDKGELHKDVVVVTVMSNMGLFLALDKANIKTVKTKVGDRYVLEEMLKEGYKLGGEQSGHIIFLDYNTTGDGLVTALKICSIVKESRKTLSKLASIMHKLPQVLANAKVPNNKKDIYLEDKEISDEIKKIEEELHGKGRVLIRPSGTEPLVRVMLEGEDQDRLNTLAHGLAELIEKKANEGHHHHHH”, “soluble”.
To “MVINSPEKEDTALILYTSGTTGKPKGVMLTFDNILANVDSLDVYKMYEETDVTIALLPLHHILPLLGTGVMPLLYSATIVFLEDISSVALIDAMKKYKGTMMIGVPKLWEVMHKKIMDTINSKAITRFIFKLAKKVNSLSFSKLIFKKVSEGFGGHIKFFVSGGSKLNPQITKDFYTLGIKICEGYGMTETSPIISYTPKNNIVFDSAGKLEHHHHHH” belongs “not soluble”; to “MGSDKIHHHHHHMALLDIRNLCIEIETPKGRVKIIDNVNLTLNEGEICGLVGESGSGKSLIAKVICNAIKDSWIITADRFRFDDVELLKLNPKKRRKLVGKEISMIYQEPLASLDPSRKIGQQLIQSIPSWTFKGRWWQWFGWKKRRAIELLHRVGVKDHKDIMQSYPHEVTEGEGQKIMIALAIANQPRLLIADEPTNSLESMTKVQIFRLLASMNQNQGTSILLVSNDINSISAWCDSFSVLYCGQNAESGSKENILENPHHPYTRALLHSIPDFKQPLVHKSRLSTLKGAVPLLEGMPIGCRLGPRCPFAQKECIRKPTAQRIKQHEFFCHFPINLKESQRREKEMETGPLVVNTTK”, “not soluble”; to “MAKEIYSKYPMVKYLRKEALPTALCPGCGGGTVLNAFANAIDQLKIDPRDLVVVSGIGCSAWIASPYFLADTLHTTHGRAIAFATGVKVGLPDKYVVVISGDGDLASIGGNHLIHAARRNIDITVILVNNFIYGMTGGQVAPTTPFGAITTTTPYRNIEHPLNIAETVAAAGASYVARWTTAHVYQLIESIKKAITTKGFSLVEVISQCPVQFGRRNKMKQPAEMLRWFLKNSVPISKAKNMSEEELEGKFIVGEFVNRRKPEFVGELNKLIREVQSKFKEE”, “not soluble”.
Turning to “MQWQTKLPLIAILRGITPDEALAHVGAVIDAGFDAVEIPLNSPQWEQSIPAIVDAYGDKALIGAGTVLKPEQVDALARMGCQLIVTPNIHSEVIRRAVGYGMTVCPGCATATEAFTALEAGAQALKIFPSSAFGPQYIKALKAVLPSDIAVFAVGGVTPENLAQWIDAGCAGAGLGSDLYRAGQSVERTAQQAAAFVKAYREAVQLHHHHHH”, the “soluble on expression in E. coli” value is “soluble”.
To “MSLERNYEESALFEHQFWLKVLTDHAQFLLDALAPKEKEDIKKATYFVETFTNLLNKVRNVNLMAFSKEAEQAAKEIRAFKLNIIQKQLEGKITIHFTPTFINHMVNEVEEYIAVLEFLKKGEVPPVFHELHYHLVWLTDAAGHAGSISGGLDLVEKRLKEKSEEFTKHFEQFYLKAVEMTGYLRTELHHFPALKKFTKDVSLELKLFSHFLHEVEELELSNEVLSVLSARMADHMAREECYYLLKLAQSSGLEMPKCNPLEGHHHHHH” belongs “soluble”; to “MSSLCPYTGRPTGLFRDFEDMMPYWAQRHSMLNNFNNIVPQQLNEVENTAQKFCVKLDVAAFKPEELKVNLEGHVLTIEGHHEVKTEHGFSKRSFTRQFTLPKDVDLAHIHTVINKEGQMTIDAPKTGSNTTVRALPIHTSAGHAVTQKPSSTTTTGKH”, “not soluble”.
To “SAEASSANLGSGCEEKRHEGSSSESVPPGTTISRVKLLDTMVDTFLQKLVAAGSYQRFTDCYKCFYQLQPAMTQRIYDKFIAQLQTSIREEISDIKEEGNLEAVLNALDKIVEEGKVRKEPAWCEAQRCRVQQRCSLCVQAGGQRGSEETQALPVSMAGSPSPLPGSPGAQEGGV” belongs “soluble”; to “MSLKIKVGLIFSGIACLFLTACVNQVKQNTTFENTLTQKYCGDDFFNQNLEKIKKNDDVIYTGLNAGLIARNCGDFNKSNVFFDAVEESYKYDVDLENVSPKAAKFIGTTLLNDNIVDYDGSLYERIMVNIYKALNYMEEDDYENARVEFNRVLMRQDKAKEYFAKEIEKNRADLDKAKEDKNYDKNMNENSKVIEAQYDNLFKEFDTTKNFINPYATYLASIFFFMDKDYRKAADLFREVAIIYPKNKTIKKEAKIFKEYATKIKVKKAKKYVFVVYENGFGVVKDEFALTLPFIVDKKIISTNIALQTLKKREASFANLNINGQNTNDFVDLDNIVATEFKINMPAMIAKALAQTIIKTTLNVAVANNDSTGGWLSLATAVATAATNKADVRSWRGLPKSIAIATIENDGNLEIKDPQGNILFQKSLDKNKNALVIVRSFAPYLPASVAIMEKEGHHHHHH”, “not soluble”; to “SLENLATAPVNQIQETISDNCVVIFSKTSCSYCTMAKKLFHDMNVNYKVVELDLLEYGNQFQDALYKMTGERTVPRIFVNGTFIGGATDTHRLHKEGKLLPLVHQCYLKKSKRKEFQ”, “soluble”.
With “GPGSMDPNTCAPASAVTDEQPLTLLWGTWEMWCDMPQRQQGQSTENTNWLEQVKSIGLFDSAEGFWGIFNCTILPSQLPPNGSYYLFRKHIAPMWEHEANRRGGKWVIPFTGKASRSEGDLQPVDEAWQTLCLSAIGELFPGDEEEICGVTVSRGRQRTLPSGHATSALSEWKLCLWTRSADNRGSQIRIAEYIRKQLHLQPPSKEASRDGKSGEQDTLMEMPRSPDRSPVAKMREASGIPSAMTYVAHRDLMEAKQEFVKGGSSVAQAFRPKYTLAIDVRNEGV” the entry was “soluble”.
Consider “MGSDKIHHHHHHMPSKISQLVTGQKIEVQLSSSNVPARFYSEFIGAVNERWVIVNMPDARKYNDMRDLLQEKTPVIVRFVLENESGEICAFRSEISYVISHPTKMLFIMWPNQIEHRIIRKGRRFDAFLPASVSGQSVKGEENTFRGHVLDVSESGCRLKHEKPEGKIDELWENGSKIVLKIEQKNNGDLTLKAIVRQVKQVDDQLELGVQFMGNQKDEVNSLFSGSLVDIDELSRLESST”, for which the “soluble on expression in E. coli” value was “not soluble”.
For the sequence “MNDVQQAINSDDIPLTDELVVSYLQDNPEFFNRNNSLMTGLRLNDEQRGTVSLVERQQQQLRQKVYGLEDEITQLMSVANHNEQLFVLYSDLYLRLLDCQSAEELLDCLHQATTELLSLSSFKLWLVSGNNTEVAHHSLSTNDCAGVMQNRLTNDEYYFGRLQESEQTLIFSKPCLGSVVLIKLTHDEQAVGFLAIGSEDAHHFDPRMDTLLLNQFKRLVAKLLHQQLSMLEHHHHHH”, the “soluble on expression in E. coli” value is “soluble”.
Consider “MLLMEKILYQTDEFKLKPSGWYKTIPPKKDGGTEFEIMLSGPIAFTDRFIDPATRKEKVFLSDLNNIELVEKASILTALQLPSLIEYGFTINEKHIRDLGFVLQQMRSTTPLSTIYSGVGMLHTLLGPLISLDQPYFSNEITNSTSIICDNKYDLIPKGNLSEWLQMYKEEVHGNLSLELDVLFGVSSLVTAFLKYHNNVEFSGTIFSFTGQSSTGKSTAAMLAASVAGNPTKGTENLFRSWNATRNALEGYLSGNYGVPIVLDELSAATFHDTTGLLYSFAEGQGRQRANINGDVKTPKNLEHHHHHH”, for which the “soluble on expression in E. coli” value is reported as “not soluble”.
With “MTEEFNESMINDIKEGDKVTGEVQQVEDKQVVVHINGGKFNGIIPISQLSTHHIDSPSEVVKEGDEVEAYVTKVEFDEENETGAYILSRRQLETEKSYSYLQEKLDNNEIIEAKVTEVVKGGLVVDVGQRGFVPASLISTDFIEDFSVFDGQTIRIKVEELDPENNRVILSRKAVEQEENDAKKDQLLQSLNEGDVIHGKVARLTQFGAFIDIGGVDGLVHVSELSHEHVQTPEEVVSIGQDVKVKIKSIDRDTERISLSIKDTLPTPFENIKGQFHENDVIEGVVVRLANFGAFVEIAPGVQGLVHISEIAHKHIGTPGEVLEPGQQVNVKILGIDEENERVSLSIKATLPNEDVVESDPSTTKAYLENEEEDNPTIGDMIGDKLKNLKLLEHHHHHH” the entry was “soluble”; with “MGSDKIHHHHHHLKQFRRNYSDPNRGPTGKGVAKYQALKHTCQVCPSKMKCCPKADARKITREEHEDARQVARKIAETKQYVISMRLKKKVEMLFAHLKRILGLGRLRLRDPSRDHGYAMTLPGTACSASDEFLLAATAQNLRKLAKTFPAPQQTRKA”, “not soluble”.
To “MSLKAVIFDMDGVLIDSEPLHLDYAFKLFKELNITMTPNEYSKFIGTTSLYMWSNIKDTYNLENTVESLINKERNGFFEFLSSPNTNIKPIDHIPELLGALKENNFKTAVASSSPMRVIKYIINNFELAKQFNELVTGDYVERSKPNPDIFLYAAKKLDVSPEQCVVIEDSHNGVLAAKNAGMKCIGFKNPNSGNQDLSKADTIIHSFNEIDILNEGHHHHHH” belongs “soluble”; to “MSLKVLIKTDLVLGAPKTLRDVYIGIDEGQIKVISKEKPEDYDYAEYVIGGKNRVVAPGFVTTHSFLYLYPFRYRVFSGKANAFQLMSTLTPNDIYYFSLMGAYHLLKTGVTTVVTSGPNLDMIARAISEVGLRPVLAVGVDCPDSKEDWEREFTTLYNRWSSKNENRVILRLCSNEYSKEVFELSQQYDFPVLLERFVSLENISGNPINVIGLGGGARKDLDIIKQKGFHLASTPSYEVSQFPLSQYKPSISLDLSPTFDIRHEVSTSITRLILTPEEALNAMTIWGLLQLKYNDRGVLENGKVADLVIFEVKEPPTFPLDYESPYESIVFNLSTPETVLVSGEAILDGGVPLNIGIKHIEKAIERLEDIDKKVTRPARYMEKDEGHHHHHH”, “not soluble”; to “MGSDKIHHHHHHMTKFLIDSLQPKLVAQFARIIDRKQLAQSYLFVGPKGAGKLALAEWIALRLFCQNVQDGAPCGQCPECERILNHNHPDVMVVKTETQSIKVDDIRGLKQEMSKTGVEGNQRVFVVEDADKMTAGAANSLLKFFEEPVPGMTVILTATSKNQLLPTILSRAQVITFQSPDRSAVIAKLEEGGATSQMARVAGRLTGNVADAQALLASATFQDRVTKVFQLLERLADHDPESFVRVQTQLLPIAKDADSQRQVLALIGLAYADALNQHFQVTSMQQLDLPAIGVLAQRSSEQLTTALQAILTAQVRLSQNVTFQSATEQLMLKLLEG”, “not soluble”.

These data come from the DeepSol protein solubility set.
